Test results as given in patent US20020193564A1, “Oligomeric chaperone proteins” (priority 1999, published 2002).
Like-named read-outs stand apart in the source and are kept apart here.

Tests used:
[1] = tested on: mutant Huntingdon exon 1-expressing PC12 and SH-SY5Y cells; assay: Inclusion formation and cell death, mutant Huntingdon exon 1; assay type: cell-based; conditions: overexpression
Excerpt: These phenomena have been studied by transiently transfecting part of Huntingdon exon 1 in COS-7, PC12, and SH-SY5Y cells. Inclusion formation was not seen with constructs expressing 23 glutamines but was repeat length and time dependent for mutant constructs with 43-74 repeats. HSP70, HSP40, the 20S proteasome and ubiquitin colocalized with inclusions. […] Thus, inclusion formation may be enhanced in polyglutamine diseases, if the pathological process results in proteasome inhibition or a heat-shock response. […] To our knowledge, this is the first report of an HSP increasing aggregation of an abnormally folded protein in mammalian cells and expands the current understanding of the roles of HDJ-2yHSDJ in protein folding (See Wyttenbach, A. et al. (2000) Proc. Natl. Acad. Sci. USA 97, 2899-2903).
We have tested MC72 in the same system.

E. coli SV6 groEL673 = assay: In vivo complementation of ts groEL673 at 43° C.; assay type: cell-based; conditions: for Relative colony forming ability, SV6 groEL673: plasmids pJC, relative to growth at 30° C.
Procedure: (§1) In vivo Complementation Experiments.
(§2) Complementation experiments were performed by transforming electro-competent SV2 or SV6 cells with the pJC series of expression vectors and plating an aliquot of the transformation reactions directly at 43° C. The percentage of viable cells relative to the growth at 30° C. was determined. A representative number of clones which grew at 43° C. were incubated in absence of any selective markers at permissive temperature. After prolonged growth the loss of the pJC plasmids and the ts phenotype were verified. Each experiment was performed in duplicate. Plasmids carrying no groE genes or encoding the GroE proteins were used as negative or positive controls, respectively.

bacteriophage λ = assay: Growth of bacteriophage λ in transformed groEL strains; assay type: cell-based, bacteriophage λ (b2cI) in E. coli; design: key to Growth of bacteriophage λ, SV1 (groEL^+) / Growth of bacteriophage λ, SV2 groEL44: +++: normal plaque-forming ability relative to wild-type groEL^+ strain, in terms of both number and size; ++: 5-fold fewer plaques relative to wild-type groEL^+ strain, or both; 10-fold fewer plaques, or plaque size reduced relative to wild-type groEL^+ strain, or both; +/−: 10^2-fold fewer plaques and plaque size reduced relative to wild-type groEL^+ strain; no visible plaques (<10^−4); conditions: for Effect of over-expression on λ growth / plaque counts: SV1 (groE^+); for Growth of bacteriophage λ, SV1 (groEL^+) / Growth of bacteriophage λ, SV2 groEL44 / Growth of bacteriophage λ, SV3 GroEL59 / Growth of bacteriophage λ, SV6 groEL673: 30° C.
Excerpt: (§3) The E. Coli strains used in this study were: C41(DE3), a mutant of BL21(DE3) capable of expressing toxic genes (Miroux, B. & Walker, J. E. (1996) J. Mol. Biol. 260, 289-298); SV2 (B178groEL44), SV3 (B178groEL59) and SV6 (B178groEL673): isogenic strains carrying temperature-sensitive alleles of groEL; SV1(=B178) (Georgopoulos, C., Hendrix, R. W., Casjens, S. R. & Kaiser, A. D. (1973) J. Mol. Biol. 76, 45-60), A190 (ΔgroEL::kan^R) [pBAD-EL] (Ivic, A., Olden, D., Wallington, E. J. & Lund, P. A. (1997) Gene 194, 1-8), and TG1 (Gibson, T. J. (1984) Ph.D. thesis, University of Cambridge, U.K). Bacteriophage λb2cI (Zeilstra-Ryalls, J., Fayet, O., Baird, L. & Georgopoulos, C. (1993) J. Bacteriol. 175, 1134-1143) was used according to standard methods (Arber, W., Enquist, L., Hohn, B., Murray, N. E. & Murray, K. (1983) in Lambda II., ed. R. W. Hendrix, J. W. r., F. W. Stahl and R. A. Weisberg (Cold Spring Harbor Laboratory, Cold Spring Harbor, N.Y.), pp. 433-466); plaque formation was assayed at 30° C. T4D0, a derivative of bacteriophage T4 (Zeilstra-Ryalls, J., Fayet, O., Baird, L. & Georgopoulos, C. (1993) J. Bacteriol. 175, 1134-1143), was used according to standard methods (Karam, J. D. (1994) Molecular biology of bacteriophage T4. (American Society for Microbiology, Washington, D.C.)); plaque formation was assayed at 37° C.

E. coli SV2 groEL44 = assay: In vivo complementation of ts groEL44 at 43° C.; assay type: cell-based; conditions: for Relative colony forming ability, SV2 groEL44: plasmids pJC, relative to growth at 30° C.
Procedure: as §1, §2

[2] = tested on: AI90 (ΔgroEL::kan^R) [pBADEL] E. coli strain; assay: Plating ability of AI90 on GroEL depletion at 37° C.; assay type: cell-based; design: key to Plating ability, 0.00 % L(+)arabinose: +++: growth identical to that in presence of 0.2% L(+)arabinose (100%), in terms of both number and size; ++: about 50% of the colonies relative to that in presence of 0.2% L(+)arabinose; +: about 30% of the colonies; +/−: ≦5% of the colonies and size reduced relative to that in presence of 0.2% L(+)arabinose; −: no visible colonies
Procedure: AI90 (ΔgroEL::kan^R) [pBAD-EL] cells were transformed with the pJC vector series. Transformants were selected at 37° C. on LB supplemented with 50 μg.ml^−1 of kanamycin, 120 μg.mL^−1 of ampicillin, 25 μg.mL^−1 of chloramphenicol and 0.2% L(+)arabinose. Depletion of GroEL protein was analysed at 37° C. by plating the same quantity of AI90 [PBAD-EL+pJC vectors] cells on LB plates containing 1% D(+)glucose or various amount of arabinose.
Each experiment was performed in triplicate. Plasmids carrying no groE genes or encoding the GroE proteins were used as negative or positive controls, respectively.

bacteriophage T4 = assay: Growth of bacteriophage T4 in transformed groEL strains; assay type: cell-based, bacteriophage T4 (T4D0) in E. coli; design: key to Growth of bacteriophage T4, SV1 (groEL^+) / Growth of bacteriophage T4, SV2 groEL44 / Growth of bacteriophage T4, SV3 GroEL59 / Growth of bacteriophage T4, SV6 groEL673: +++: normal plaque-forming ability relative to wild-type groEL^+ strain, in terms of both number and size; ++: 5-fold fewer plaques relative to wild-type groEL^+ strain, or both; 10-fold fewer plaques, or plaque size reduced relative to wild-type groEL^+ strain, or both; +/−: 10^2-fold fewer plaques and plaque size reduced relative to wild-type groEL^+ strain; no visible plaques (<10^−4); conditions: for Growth of bacteriophage T4, SV1 (groEL^+) / Growth of bacteriophage T4, SV2 groEL44 / Growth of bacteriophage T4, SV3 GroEL59 / Growth of bacteriophage T4, SV6 groEL673: 37° C.
Excerpt: as §3

[3] = tested on: mutant Huntingdon exon 1-expressing PC12 and SH-SY5Y cells; conditions: overexpression; cited from earlier work

## yeast Hsp104: yeast chaperone Hsp104
[1]
  cell death: reduced
  inclusion formation: reduced inclusion formation

## GroES-EL: plasmid encoding the GroE proteins GroES and GroEL, positive control
E. coli SV6 groEL673
  Relative colony forming ability, SV6 groEL673: 1
Bacteriophage λ
  Effect of over-expression on λ growth / plaque counts: four-fold drop in plaques
E. coli SV2 groEL44
  Relative colony forming ability, SV2 groEL44: 1

B1: sht-GroEL(191-376): histidine-tagged (short histidine tail; sht) minichaperone GroEL(191-376) (protein, UniProt P0A6F5 191-376, looked up, fragment)
chain: EGMQFDRGYLSPYFINKPETGAVELESPFILLADKKISNIREMLPVLEAVAKAGKPLLIIAEDVEGEALATLVVNTMRGIVKVAAVKAPGFGDRRKAMLQDIATLTGGTVISEEIGMELEKATLEDLGQAKRVVINKDTTTIIDGVGEEAAIQGRVAQIRQQIEEATSDYDREKLQERVAKLAGGV
modifications: short His tag
E. coli SV6 groEL673
  Relative colony forming ability, SV6 groEL673: <10^−4
Bacteriophage λ
  Growth of bacteriophage λ, SV1 (groEL^+): +++
  Growth of bacteriophage λ, SV2 groEL44: − (no visible plaques (<10^−4))
  Growth of bacteriophage λ, SV3 GroEL59: − (no visible plaques (<10^−4))
  Growth of bacteriophage λ, SV6 groEL673: − (no visible plaques (<10^−4))
[2]; 0.00% arabinose
  Plating ability, 0.00 % L(+)arabinose: −
[2]; 0.01% arabinose
  Plating ability, 0.01 % L(+)arabinose: +/− (≦5% of the colonies and size reduced relative to that in presence of 0.2% L(+)arabinose)
[2]; 0.10% arabinose
  Plating ability, 0.10 % L(+)arabinose: + (about 30% of the colonies)
[2]; 0.15% arabinose
  Plating ability, 0.15 % L(+)arabinose: ++ (about 50% of the colonies relative to that in presence of 0.2% L(+)arabinose)
Bacteriophage T4
  Growth of bacteriophage T4, SV1 (groEL^+): +++
  Growth of bacteriophage T4, SV2 groEL44: − (no visible plaques (<10^−4))
  Growth of bacteriophage T4, SV3 GroEL59: +++
  Growth of bacteriophage T4, SV6 groEL673: − (no visible plaques (<10^−4))
E. coli SV2 groEL44
  Relative colony forming ability, SV2 groEL44: <10^−4

B2: sht-GroEL(193-335): short histidine tail minichaperone, GroEL residues 193-335 (protein, UniProt P0A6F5 193-335, looked up, fragment)
chain: MQFDRGYLSPYFINKPETGAVELESPFILLADKKISNIREMLPVLEAVAKAGKPLLIIAEDVEGEALATLVVNTMRGIVKVAAVKAPGFGDRRKAMLQDIATLTGGTVISEEIGMELEKATLEDLGQAKRVVINKDTTTIIDG
modifications: short His tag
E. coli SV6 groEL673
  Complementation of the groEL673 defect in SV6: less well
  Relative colony forming ability, SV6 groEL673: 0.03-0.05
E. coli SV2 groEL44
  Complementation of the groEL44 defect in SV2: complements the defect in SV2
  Relative colony forming ability, SV2 groEL44: 0.05-0.09

B3: sht-GroEL(191-345): short histidine tail minichaperone, GroEL residues 191-345 (protein, UniProt P0A6F5 191-345, looked up, fragment)
chain: EGMQFDRGYLSPYFINKPETGAVELESPFILLADKKISNIREMLPVLEAVAKAGKPLLIIAEDVEGEALATLVVNTMRGIVKVAAVKAPGFGDRRKAMLQDIATLTGGTVISEEIGMELEKATLEDLGQAKRVVINKDTTTIIDGVGEEAAIQGR
modifications: short His tag
E. coli SV6 groEL673
  Complementation of the groEL673 defect in SV6: complemented
  Relative colony forming ability, SV6 groEL673: 0.07-0.09
E. coli SV2 groEL44
  Relative colony forming ability, SV2 groEL44: 0.01-0.02

B4: GroEL(191-345): GroEL(191-345) minichaperone monomer (protein, UniProt P0A6F5 191-345, looked up, fragment)
chain: B3 chain
modifications: apical domain
notes: GroEL(191-345) minichaperone monomer
[3]
  cell death: reduced cell death
  proportion of cells with inclusions / inclusion formation: reduced slightly but significantly

B5: GroES(1-97): co-chaperone of GroEL, seven membered ring of 10 kD subunits (protein, UniProt P0A6F9 1-97, looked up)
Co-chaperonin GroES: MNIRPLHDRVIVKRKEVETKSAGGIVLTGSAAAKSTRGEVLAVGNGRILENGEVKPLDVKVGDIVIFNDGYGVKSEKIDNEEVLIMSESDILAIVEA
E. coli SV6 groEL673
  Relative colony forming ability, SV6 groEL673: <10^−4
Bacteriophage λ
  Complementation of groEL mutant strains for bacteriophage λ growth: allele-specific complementation
  Growth of bacteriophage λ, SV1 (groEL^+): +++
  Growth of bacteriophage λ, SV2 groEL44: +++
  Growth of bacteriophage λ, SV3 GroEL59: − (no visible plaques (<10^−4))
  Growth of bacteriophage λ, SV6 groEL673: − (no visible plaques (<10^−4))
  Effect of over-expression on λ growth / plaque counts: no effect
Bacteriophage T4
  Growth of bacteriophage T4, SV1 (groEL^+): +++
  Growth of bacteriophage T4, SV2 groEL44: +++
  Growth of bacteriophage T4, SV3 GroEL59: +++
  Growth of bacteriophage T4, SV6 groEL673: − (no visible plaques (<10^−4))
Bacteriophage T4; groEL strains
  Effect of over-expression on bacteriophage T4 growth in groEL strains: allele-specific complementation
E. coli SV2 groEL44
  Relative colony forming ability, SV2 groEL44: 5 × 10^−3
